Source: patent US12383631

Experiments:
[1] = molecular target: Composition A (LZM-009 conjugated to IL-18 polypeptide of SEQ ID NO: 30) (human) (UniProt Q14116)
[2] = molecular target: Composition C (Trastuzumab/Herceptin conjugated to IL-18 polypeptide of SEQ ID NO: 30) (human)
[3] = molecular target: Composition D (LZM-009 conjugated to IL-18 polypeptide of SEQ ID NO: 31) (human) (UniProt Q14116)
[4] = molecular target: IL-18 polypeptide of SEQ ID NO: 31 (C38A, C76A, C127A) (human) (UniProt Q14116)
[5] = molecular target: native IL-18 wild-type (SEQ ID NO: 1) (human) (UniProt Q14116)
[6] = molecular target: IL-18 polypeptide C143 (human) (UniProt Q14116); experiment: cell-based or functional assay
[7] = molecular target: IL-18 polypeptide C146 (SEQ ID NO: 68) (human) (UniProt Q14116); experiment: cell-based or functional assay
[8] = molecular target: IL-18 polypeptide C147 (human) (UniProt Q14116); experiment: cell-based or functional assay
[9] = molecular target: IL-18 polypeptide C151 (human) (UniProt Q14116); experiment: cell-based or functional assay
[10] = molecular target: IL-18 polypeptide C154 (human) (UniProt Q14116); experiment: cell-based or functional assay
[11] = molecular target: IL-18 polypeptide C158 (human) (UniProt Q14116); experiment: cell-based or functional assay
[12] = molecular target: IL-18 polypeptide C164 (human) (UniProt Q14116); experiment: cell-based or functional assay
[13] = molecular target: IL-18 polypeptide of SEQ ID NO: 30 (E6K, V11I, C38A, K53A, T63A, C76A, C127A) (human) (UniProt Q14116); experiment: cell-based or functional assay
[14] = molecular target: IL-18 polypeptide of SEQ ID NO: 31 (C38A, C76A, C127A) (human) (UniProt Q14116); experiment: cell-based or functional assay
[15] = molecular target: IL-18 polypeptide of SEQ ID NO: 34 (E06K, K53A, S55A) (human) (UniProt Q14116); experiment: cell-based or functional assay
[16] = molecular target: IL-18 polypeptide of SEQ ID NO: 37 (S55A) (human) (UniProt Q14116); experiment: cell-based or functional assay
[17] = molecular target: IL-18 polypeptide of SEQ ID NO: 38 (E06K) (human) (UniProt Q14116); experiment: cell-based or functional assay
[18] = molecular target: IL-18 polypeptide of SEQ ID NO: 39 (E06K, K53A) (human) (UniProt Q14116); experiment: cell-based or functional assay
[19] = molecular target: IL-18 polypeptide of SEQ ID NO: 4 (E6K, C38A, K53A, C68A, M86C) (human) (UniProt Q14116); experiment: cell-based or functional assay
[20] = molecular target: IL-18 polypeptide of SEQ ID NO: 40 (E06K, S55A) (human) (UniProt Q14116); experiment: cell-based or functional assay
[21] = molecular target: IL-18 polypeptide of SEQ ID NO: 48 (C38S, C68S, C76S, C127S, K70C) (human) (UniProt Q14116); experiment: cell-based or functional assay
[22] = molecular target: IL-18 polypeptide of SEQ ID NO: 50 (E06K, K53A, T63A) (human) (UniProt Q14116); experiment: cell-based or functional assay
[23] = molecular target: IL-18 polypeptide of SEQ ID NO: 53 (K53A, T63A) (human) (UniProt Q14116); experiment: cell-based or functional assay
[24] = molecular target: IL-18 polypeptide of SEQ ID NO: 54 (E06K, K53A, C38S, C68S, C76S, C127S, K70C) (human) (UniProt Q14116); experiment: cell-based or functional assay
[25] = molecular target: IL-18 polypeptide of SEQ ID NO: 6 (E6K, V11I, C38A, K53A, T63A, C68A, C76A, D98C, C127A) (human) (UniProt Q14116); experiment: cell-based or functional assay

IC50 (read off the curve), IFNg secretion of the stimulated NK92 cells (IFNg AlphaLISA signal) [1]: 8 nM
IC50 (read off the curve), IFNg secretion of the stimulated NK92 cells (IFNg AlphaLISA signal) [2]: 10 nM
IC50 (read off the curve), IFNg secretion of the stimulated NK92 cells (IFNg AlphaLISA signal) [3]: 0.1 nM
IC50 (read off the curve), IFNg secretion of the stimulated NK92 cells (IFNg AlphaLISA signal) [4]: 0.3 nM
IC50 (read off the curve), IFNg secretion of the stimulated NK92 cells (IFNg AlphaLISA signal) [5]: 1 nM
IC50 of IL-18BP on IFNγ secretion, NK92 cells [6]: 1.62 nM
IC50 of IL-18BP on IFNγ secretion, NK92 cells [7]: 733 nM
IC50 of IL-18BP on IFNγ secretion, NK92 cells [8]: 47.6 nM
IC50 of IL-18BP on IFNγ secretion, NK92 cells [9]: 3.62 nM
IC50 of IL-18BP on IFNγ secretion, NK92 cells [10]: 3.71 nM
IC50 of IL-18BP on IFNγ secretion, NK92 cells [11]: 3.98 nM
IC50 of IL-18BP on IFNγ secretion, NK92 cells [12]: 0.456 nM
IC50 of IL-18BPa on IFNγ secretion by NK92 cells [13]: 488 nM
IC50 of IL-18BPa on IFNγ secretion by NK92 cells [14]: 0.282 nM
IC50 of IL-18BP on IFNγ secretion, NK92 cells [15]: 229 nM
IC50 of IL-18BP on IFNγ secretion, NK92 cells [16]: 4.46 nM
IC50 of IL-18BP on IFNγ secretion, NK92 cells [17]: 7.79 nM
IC50 of IL-18BP on IFNγ secretion, NK92 cells [18]: > 703 nM
IC50 of IL-18BP on IFNγ secretion, NK92 cells [19]: 396 nM
IC50 of IL-18BP on IFNγ secretion, NK92 cells [20]: 15 nM
IC50 of IL-18BP on IFNγ secretion, NK92 cells [21]: 0.114 nM
IC50 of IL-18BP on IFNγ secretion, NK92 cells [22]: > 1000 nM
IC50 of IL-18BP on IFNγ secretion, NK92 cells [23]: 18.2 nM
IC50 of IL-18BP on IFNγ secretion, NK92 cells [24]: 23.5 nM
IC50 of IL-18BP on IFNγ secretion, NK92 cells [25]: 5.85 nM
Substance: Fc fused human IL-18 binding protein isoform a (IL-18BPa; R&D systems, Cat #119-BP) (from UniProt O95998 31-194) (Fc fusion)
